target: SARS-CoV-2 spike protein trimer, wild type (SARS-CoV-2, UniProt P0DTC2 16-1213); assay: ELISA, purified IgG

| Binder | binding result |
| --- | --- |
| SEQ ID NO 12 (antibody, V domains shown, also called selected clone from LxC libraries; LxC clone) VH: EVQLVESGGGLVQPGGSLRLSCTVSGFSLSTYAMSWVRQAPGKGLEWIGVIASNADTYYASWAKGRFTISRDNSKNTLYLQMNSLRAEDTAVYYCARHPGSAGYGYAVYYAMDPWGQGTLVTVSS VL: DIQMTQSPSSLSASVGDRVTITCQASQPIHYAINWYQQKPGKAPKLLIYGTSHRKMGVPSRFSGSGSGTDYTLTISSLQPEDFATYYCQQGYIVALKFGGGTKVEIK | binds |
| SEQ ID NO 17 (antibody, V domains shown, As m4) VH: EVQLVESGGGLVQPGGSLRLSCTVSGFSLSTYAMSWVRQAPGKGLEWIGVIASNADTYYASWAKGRFTISRDNSKNTLYLQMNSLRAEDTAVYYCARHPGSAGYGYAVYYAMDPWGQGTLVTVSS VL: DIQMTQSPSSLSASVGDRVTITCQASQPIYYGINWYQQKPGKAPKLLIYGHTYRAWGVPSRFSGSGSGTDFTLTISSLQPEDFATYYCQQGYRVGLGFGGGTKVEIK | binds |
| SEQ ID NO 18 (antibody, V domains shown, As m4; also called selected clone from LxC libraries; LxC clone) VH: EVQLVESGGGLVQPGGSLRLSCTVSGFSLSTYAMSWVRQAPGKGLEWIGVIASNADTYYASWAKGRFTISRDNSKNTLYLQMNSLRAEDTAVYYCARHPGSAGYGYAVYYAMDPWGQGTLVTVSS VL: DIQMTQSPSSLSASVGDRVTITCKASEDIRYGLNWYQQKPGKAPKLLIYGGSYLRWGVPSRFSGSGSGTDYTLTISSLQPEDFATYYCQQGYRVPIRFGGGTKVEIK | binds |
| SEQ ID NO 16 (antibody, V domains shown, As m4) VH: EVQLVESGGGLVQPGGSLRLSCTVSGFSLSTYAMSWVRQAPGKGLEWIGVIASNADTYYASWAKGRFTISRDNSKNTLYLQMNSLRAEDTAVYYCARHPGSAGYGYAVYYAMDPWGQGTLVTVSS VL: DIQMTQSPSSLSASVGDRVTITCQASQDVKYAINWYQQKPGKAPKLLIYGTSSRGEGVPSRFSGSGSGTDYTLTISSLQPEDFATYYCQQGYVVSIFFGGGTKVEIK | binds |
| SEQ ID NO 15 (antibody, V domains shown, As m4) VH: EVQLVESGGGLVQPGGSLRLSCTVSGFSLSTYAMSWVRQAPGKGLEWIGVIASNADTYYASWAKGRFTISRDNSKNTLYLQMNSLRAEDTAVYYCARHPGSAGYGYAVYYAMDPWGQGTLVTVSS VL: DIQMTQSPSSLSASVGDRVTITCQASQKIHYAINWYQQKPGKAPKLLIYGTSYLGGGVPSRFSGSGSGTDFTLTISSLQPEDFATYYCQQGYIVPNSFGGGTKVEIK | binds |
